To fix the notation:
T1: His-tagged mArfN37 (mouse)
T1 construct: Captured on the SPR chip through a covalently attached Tetra-His antibody; also called His-mArfN37; His-tagged mArf37; not shown: thrombin-cleavable poly-His tag
T1 chain: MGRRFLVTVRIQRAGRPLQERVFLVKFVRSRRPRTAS

B1: 315-329 (peptide)
peptide: LPSHCNRCWALRENW
modifications: not fully specified; cysteine pairing not given here
notes: also called Hdm2 library peptide, residues 315-329
B2: 310-324 (peptide)
peptide: EMNPPLPSHCNRCWA
modifications: not fully specified; cysteine pairing not given here
notes: also called Hdm2 library peptide, residues 310-324
B3: 260-274 (peptide)
peptide: SLSEEGQELSDEDDE
modifications: not fully specified
notes: also called Hdm2 library peptide, residues 260-274
B4: 210-224 (peptide)
peptide: SSSSESTGTPSNPDL
modifications: not fully specified
notes: also called Hdm2 library peptide, residues 210-224
B5: 220-234 (peptide)
peptide: SNPDLDAGVSEHSGD
modifications: not fully specified
notes: also called Hdm2 library peptide, residues 220-234
B6: 265-279 (peptide)
peptide: GQELSDEDDEVYQVT
modifications: not fully specified
notes: also called Hdm2 library peptide, residues 265-279
B7: 215-229 (peptide)
peptide: STGTPSNPDLDAGVS
modifications: not fully specified
notes: also called Hdm2 library peptide, residues 215-229
B8: 280-294 (peptide)
peptide: VYQAGESDTDSFEED
modifications: not fully specified
notes: also called Hdm2 library peptide, residues 280-294
B9: 300-314 (peptide)
peptide: ADYWKCTSCNEMNPP
modifications: not fully specified; cysteine pairing not given here
notes: also called Hdm2 library peptide, residues 300-314
B10: 325-339 (peptide)
peptide: LRENWLPEDKGKDKG
modifications: not fully specified
notes: also called Hdm2 library peptide, residues 325-339
B11: 320-334 (peptide)
peptide: NRCWALRENWLPEDK
modifications: not fully specified
notes: also called Hdm2 library peptide, residues 320-334
B12: 230-244 (peptide)
peptide: EHSGDWLDQDSVSDQ
modifications: not fully specified
notes: also called Hdm2 library peptide, residues 230-244
B13: 285-299 (peptide)
peptide: ESDTDSFEEDPEISL
modifications: not fully specified
notes: also called Hdm2 library peptide, residues 285-299
B14: 330-344 (peptide)
peptide: LPEDKGKDKGEISEK
modifications: not fully specified
notes: also called Hdm2 library peptide, residues 330-344
B15: 1-15 (peptide)
peptide: MGRRFLVTVRIQRAG
modifications: not fully specified
notes: also called mouse p19Arf library peptide, residues 1-15
B16: 46-60 (peptide)
peptide: VLMLLRSQRLGQQPL
modifications: not fully specified
notes: also called human p14Arf library peptide, residues 46-60
B17: 61-75 (peptide)
peptide: PRRPGHDDGQRPSGG
modifications: not fully specified
notes: also called human p14Arf library peptide, residues 61-75
B18: 76-90 (peptide)
peptide: AAAAPRRGAQLRRPR
modifications: not fully specified
notes: also called human p14Arf library peptide, residues 76-90
B19: 21-35 (peptide)
peptide: RVFVVHIPRLTGEWA
modifications: not fully specified
notes: also called human p14Arf library peptide, residues 21-35
B20: 116-130 (peptide)
peptide: GAAGRARCLGPSARG
modifications: not fully specified
notes: also called human p14Arf library peptide, residues 116-130
B21: 26-40 (peptide)
peptide: HIPRLTGEWAAPGAP
modifications: not fully specified
notes: also called human p14Arf library peptide, residues 26-40
B22: 81-95 (peptide)
peptide: RRGAQLRRPRHSHPT
modifications: not fully specified
notes: also called human p14Arf library peptide, residues 81-95
B23: 96-110 (peptide)
peptide: RARRCPGGLPGHAGG
modifications: not fully specified
notes: also called human p14Arf library peptide, residues 96-110
B24: 71-85 (peptide)
peptide: RPSGGAAAAPRRGAQ
modifications: not fully specified
notes: also called human p14Arf library peptide, residues 71-85
B25: 106-120 (peptide)
peptide: GHAGGAAPGRGAAGR
modifications: not fully specified
notes: also called human p14Arf library peptide, residues 106-120
B26: 91-105 (peptide)
peptide: HSHPTRARRCPGGLP
modifications: not fully specified
notes: also called human p14Arf library peptide, residues 91-105
B27: 111-125 (peptide)
peptide: AAPGRGAAGRARCLG
modifications: not fully specified
notes: also called human p14Arf library peptide, residues 111-125
B28: 51-65 (peptide)
peptide: RSQRLGQQPLPRRPG
modifications: not fully specified
notes: also called human p14Arf library peptide, residues 51-65
B29: 41-55 (peptide)
peptide: AAVALVLMLLRSQRL
modifications: not fully specified
notes: also called human p14Arf library peptide, residues 41-55
B30: 31-45 (peptide)
peptide: TGEWAAPGAPAAVAL
modifications: not fully specified
notes: also called human p14Arf library peptide, residues 31-45
B31: 66-80 (peptide)
peptide: HDDGQRPSGGAAAAP
modifications: not fully specified
notes: also called human p14Arf library peptide, residues 66-80
B32: 56-70 (peptide)
peptide: GQQPLPRRPGHDDGQ
modifications: not fully specified
notes: also called human p14Arf library peptide, residues 56-70

Where no end group is shown, it is not given here.

The target in the first test is T1, His-tagged mArfN37. The test can be described thus: SPR (Biacore), His-tagged mArfN37 captured by anti-His antibody, Hdm2 peptide as analyte, reference cell subtracted. How it is done:
(§1) Surface Plasmon Resonance. Binding studies were performed using a Biacore 3000 surface plasmon resonance (SPR) instrument (Biacore, Inc.). A Tetra-His™ Antibody (Qiagen, Inc.; Cat. #34670) was covalently attached to a carboxymethylated gold surface (C-1 chip; Biacore, Inc.). The carboxymethyl groups on the surface were activated with N-ethyl-N-(3-dimethylaminopropyl) carbodiimide (EDC) and N-hydroxysuccinimide (NHS) and the antibody was attached at pH 7.4 in 20 mM sodium phosphate buffer, 150 mM NaCl (PBS). Reactive sites remaining on the surface were blocked by reaction with ethanolamine. The His-tagged ligand was attached to the antibody by injecting a […] solution of the ligand in 10 mM HEPES, 150 mM NaCl, pH 7.4 (HBS-N buffer, Biacore) at a flow rate of 10 μL/Min through the flow cell. A reference cell was prepared similarly except that no His-tagged ligand was added. Binding was measured by flowing the non-His-tagged analyte through the reference and ligand-containing flow cells in sequence. Prior to injection of ligands, the chip surfaces were equilibrated in HBS-N buffer. Changes in the SPR response due to solvent differences and the injection process were monitored by injection of HBS-N buffer alone. Regeneration of the chip surface to remove bound analyte and ligand was accomplished by two 100 μL injections of 10 mM glycine, pH 2.0 through both flow cells. Data reported is-the difference in SPR signal between the flow cell containing analyte and the reference cell. Duplicate injections were made and the SPR response values reported are the average of these two injections.
A similar approach using short synthetic peptides and SPR was used to map the segments of Hdm2 that bind mArfN37 (FIG. 5c). […] The first of these as Arf-binding segment is termed “H1” and the second is termed segment “H2”.
On to B1, for which the binding result is given as “no binding (tested: not given)”.
On to B2, for which the binding result is recorded as “no binding (tested: not given)”.
As to DSEDYSLSEEGQELS (not fully specified) [255-269], the binding result is “no binding (tested: not given)”.
The same measure, in the same setting: in the case of B3 it was “no binding (tested: not given)”.
As to B4, the binding result was “no binding (tested: not given)”.
As to B5, the binding result is “no binding (tested: not given)”.
Same read-out and setting: in the case of B6 it was “no binding (tested: not given)”; in that of B7, “no binding (tested: not given)”.
Turning to B8, the binding result is on record as “no binding (tested: not given)”.
Same read-out and setting: in the case of GKDKGEISEKAKLEN (not fully specified) [335-349] it was “no binding (tested: not given)”.
For the molecule B9, the binding result is given as “no binding (tested: not given)”.
Regarding FSVEFEVESLDSEDY (not fully specified) [245-259], the binding result is listed as “binds”.
Still for that read-out and setting: as for PEISLADYWKCTSCN (not fully specified; cysteine pairing not given here) [295-309], the entry is “no binding (tested: not given)”; as for B10, “no binding (tested: not given)”.
As for WLDQDSVSDQFSVEF (not fully specified) [235-249], the binding result is listed as “binds”.
Take B11: the binding result was “no binding (tested: not given)”.
The same measure, in the same setting: in the case of B12 it was “no binding (tested: not given)”; in that of B13, “no binding (tested: not given)”; in that of B14, “no binding (tested: not given)”.

A further test deals with T2, His-tagged Hdm2 210-304 (human, UniProt Q00987 210-304).
T2 construct: not shown: thrombin-cleavable poly-His tag from pET28a
T2 sequence (Q00987 210-304): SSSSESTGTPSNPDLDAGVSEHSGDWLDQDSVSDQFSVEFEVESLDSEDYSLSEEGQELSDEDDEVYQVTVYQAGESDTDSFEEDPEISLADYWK
The test can be described thus: SPR (Biacore), His-tagged Hdm2 210-304 captured by anti-His antibody, mouse Arf peptide as analyte, reference cell subtracted. How it is done:
as §1
(§2) Two libraries of peptides 15 amino acids in length were synthesized based on the sequence of exon 1β of mouse p19^Arf and the entire sequence of human p14^Arf. The sequence for the first peptide in each library corresponded to the first 15 amino acids of the protein sequences. […] This approach yielded two libraries of overlapping peptides spanning mouse p19^Arf residues 1-64 and human p14^Arf residues 1-132. The ability of these peptides to bind Hdm2 fragments was determined using the surface plasmon resonance (SPR) technique with a Biacore 3000 instrument.
For orientation: Surface plasmon resonance follows binding to a sensor surface in real time, without labels.
For B15, the binding result is “binds”.

The target of another test is T2, His-tagged Hdm2 210-304. Nature of the test: SPR (Biacore), His-tagged Hdm2 210-304 captured by anti-His antibody, human Arf peptide as analyte, reference cell subtracted. On the procedure: as §1, §2
With B16, the binding result is reported as “no binding (tested: not given)”.
With B17, the binding result was “no binding (tested: not given)”.
As for B18, the binding result is “no binding (tested: not given)”.
Regarding B19, the binding result is “no binding (tested: not given)”.
On to B20, for which the binding result is “no binding (tested: not given)”.
Still for that read-out and setting: in the case of B21 it was “no binding (tested: not given)”; in that of B22, “no binding (tested: not given)”; in that of B23, “no binding (tested: not given)”.
As for B24, the binding result is reported as “no binding (tested: not given)”.
In the case of B25, the binding result was “no binding (tested: not given)”.
The same measure, in the same setting: as for B26, the entry is “no binding (tested: not given)”.
Regarding B27, the binding result is recorded as “no binding (tested: not given)”.
Same read-out and setting: as for B28, the entry is “no binding (tested: not given)”; as for PGGLPGHAGGAAPGR (not fully specified) [101-115], “no binding (tested: not given)”; as for B29, “no binding (tested: not given)”.
On the same count and under the same terms, in the case of B30 it was “no binding (tested: not given)”; in that of B31, “no binding (tested: not given)”.
Take B32: the binding result is “no binding (tested: not given)”.

For the origin of these results see patent US20040248198A1 (ST JUDE CHILDREN S RESEARCH HOSPITAL, published 2004).
